Test [1] deals with T1, WT human CXCL12α (human, UniProt P48061-2 22-89, 15N-labelled in one NMR orientation; FITC in flow cytometry (Fig 6H)).
T1 construct: CXCL12 alpha, human, codon-optimised cDNA, released from the thioredoxin-His fusion by enterokinase; also called CXCL12 FITC; source: E. coli BL21(DE3), from inclusion bodies, purified (HisTrap, Heparin HP, enterokinase cleavage, Mono S); not shown: thioredoxin, N-terminal, cleaved; His tag, N-terminal, cleaved
The experiment in a line: NMR titration; 1H-15N HSQC, 15N-labelled protein with unlabelled partner (10 μM 15N-CXCL12 with 330 μM Gal-3 CRD; 30 μM 15N-Gal-3 CRD with 500 μM CXCL12; 30 μM 15N-CXCL12 with 500 μM Gal-3 CRD mutants), 20 mM sodium acetate pH 4.5, 4.5 mM lactose, 37°C. Conditions: both partners purified.

The target of test [2] is T1, WT human CXCL12α. Kind of test: far-Western, overlay or dot blot; solid-phase immunoassay: 100 ng of Gal-3 or Gal-3 CRD variants on nitrocellulose, 120 nM CXCL12 overnight, SA-HRP, densitometry (Appendix Fig S7). Conditions: both partners purified.

Residue numbers refer to the chain shown, from its start.

B1: Gal‐3 CRD mutant Q220E (domain or fragment, UniProt P17931 108-250, looked up)
chain: GAPAGPLIVPYNLPLPGGVVPRMLITILGTVKPNANRIALDFQRGNDVAFHFNPRFNENNRRVIVCNTKLDNNWGREERQSVFPFESGKPFKIQVLVEPDHFKVAVNDAHLLEYNHRVKKLNEISKLGISGDIDLTSASYTMI
notes: The limits are those printed for the wild-type CRD
As to B1, the “CXCL12 sequence-averaged Δδ” value in test [1] turned out to be 0.0073 ppm.

B2: Gal‐3 CRD mutant N222A (domain or fragment, UniProt P17931 108-250, looked up)
chain: B1 chain with E113Q, N115A
notes: as for B1
As to B2, in test [2], the binding result was “binds”.

B3: Gal‐3 CRD mutant E185A (domain or fragment, UniProt P17931 108-250, looked up)
chain: B1 chain with E78A, E113Q
notes: as for B1
For the molecule B3, the binding result in test [2] was “binds”.

B4: Gal‐3 CRD mutant N160A (domain or fragment, UniProt P17931 108-250, looked up)
chain: B1 chain with N53A, E113Q
notes: as for B1
B4: the binding result in test [2] was “binds”.

B5: Gal‐3 CRD mutant H217A (domain or fragment, UniProt P17931 108-250, looked up)
chain: B1 chain with H110A, E113Q
notes: as for B1
As to B5, the “CXCL12 sequence-averaged Δδ” value in test [1] is 0.0048 ppm.

B6: Gal‐3 CRD mutant Q220K (domain or fragment, UniProt P17931 108-250, looked up)
chain: B1 chain with E113K
notes: as for B1
B6: the “CXCL12 sequence-averaged Δδ” value in test [1] was 0.0036 ppm.

These data come from publication PMC7132340 (EMBO Reports, 2020).
